In US20240317853A1 (UNIVERSITY OF TOKYO, published 2024):

Biological target: T1, CADM1FcΔ10 (Δ10 Fc variant formed by fusing human Fc with a CADM1 extracellular domain) (human)
T1 construct: The whole entry is the fusion (CADM1 extracellular domain, AAA linker, human IgG1 hinge-Fc); Dimerized via Fc; also called Fc10; dimerized FcΔ10
Test: SPR (Biacore 8K), antibody amine-coupled on CM5, CADM1 as analyte, multi-cycle kinetics
Procedure: The antibody was diluted with a phosphate buffered saline (PBS) at a concentration of 1 mg/ml, and was then immobilized as a ligand on a sensor chip CM5 by an amine coupling method.

T1 sequence (chain, as listed by the source mutant limits assumed): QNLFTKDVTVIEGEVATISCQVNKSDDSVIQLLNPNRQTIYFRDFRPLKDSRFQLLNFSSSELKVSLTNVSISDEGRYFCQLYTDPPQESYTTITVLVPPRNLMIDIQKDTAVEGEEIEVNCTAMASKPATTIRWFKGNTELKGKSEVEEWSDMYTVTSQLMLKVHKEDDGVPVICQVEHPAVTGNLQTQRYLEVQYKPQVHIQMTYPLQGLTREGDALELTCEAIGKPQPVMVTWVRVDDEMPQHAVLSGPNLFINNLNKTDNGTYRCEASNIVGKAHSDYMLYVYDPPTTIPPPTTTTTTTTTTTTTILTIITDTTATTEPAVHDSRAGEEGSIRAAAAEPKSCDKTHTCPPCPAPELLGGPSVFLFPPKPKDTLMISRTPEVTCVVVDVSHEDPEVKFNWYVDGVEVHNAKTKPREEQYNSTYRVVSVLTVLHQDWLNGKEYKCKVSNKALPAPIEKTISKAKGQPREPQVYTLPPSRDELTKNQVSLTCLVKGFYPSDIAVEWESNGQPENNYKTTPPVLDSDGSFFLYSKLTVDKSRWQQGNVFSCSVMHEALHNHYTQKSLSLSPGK

Kd: 0.64 nM
B1: YTH-W-2C2 chimeric antibody (antibody, V domains shown)
VH: QVQLQQSGAELAKPGSSVKISCKASGYTFSNYDISWIKQTTGQGLDYIGYIHTGSGGTYYNEKFKGKATLTVDKSSSTAFMQLSSLTPEDTAVYYCARTPYVYYGSGYFDFWGPGTMVTVSS
VL: DIVMTQSPSSLAVSAGETVTINCKSSQSLLYSGNQKNYLAWYQQKPGQSPKLLIYWASTRQSGVPDRFIGSGSGTDFTLTISSVQAEDLAIYYCQQYYDTPDTFGAGTKLELKR
